From PMC9352680, “A comprehensive thermodynamic model for RNA binding by the Saccharomyces cerevisiae Pumilio protein PUF4”
Positions count from the first letter of the chain named. Names may count otherwise.

Target: T1, PUF4 RNA-binding domain (Saccharomyces cerevisiae, UniProt P25339 537-888)
T1 sequence: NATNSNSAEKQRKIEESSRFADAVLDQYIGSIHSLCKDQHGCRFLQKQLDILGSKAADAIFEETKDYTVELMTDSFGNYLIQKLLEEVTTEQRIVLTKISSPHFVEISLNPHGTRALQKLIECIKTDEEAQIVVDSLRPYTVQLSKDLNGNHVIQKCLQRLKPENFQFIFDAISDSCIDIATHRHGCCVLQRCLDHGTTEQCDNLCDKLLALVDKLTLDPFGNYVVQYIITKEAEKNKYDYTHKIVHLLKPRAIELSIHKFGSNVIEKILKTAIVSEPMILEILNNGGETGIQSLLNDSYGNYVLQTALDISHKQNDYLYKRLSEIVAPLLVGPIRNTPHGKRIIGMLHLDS
Experiment: Mg; RNA-MaP; 20 mM Na-HEPES pH 7.4, 30 mM KOAc, 0.75 mM MgCl2, 0.1% Tween-20, 5% glycerol, 0.1 mg/mL BSA, 2 mM DTT; 25 C; 0.0125-409.6 nM protein
Settings: tags: N-His6-TEV cleaved; C-SNAP kept, Cy3B-labelled; label: tethered on chip by stalled RNA polymerase

B1: Id_ii_S2_P3E.4_K3.3_C3.2_[C-2G]_H3.3_A3.1_F3.1_T3.2_[T9C]_[A10C] (ssRNA)
RNA: UUUGAUUAAUAUGAUAUCGUUCUUUCUGUACACUAUACCUUCUUUCUCGAUAUCAUAUUAAUCUUU
  Kd: 0.875 nM

B2: Id_ii_S2_P3E.4_K3.3_C3.2_[C-2G]_H3.3_A3.1_F3.1_T3.2_[T9C]_[A10T] (ssRNA)
RNA: B1 RNA with C39U
  Kd: 1.98 nM

B3: Id_ii_S2_P3E.4_K3.3_C3.2_[C-2G]_H3.3_A3.1_F3.1_T3.2_[T9A]_[A10C] (ssRNA)
RNA: B1 RNA with C38A
  Kd: 0.742 nM

B4: Id_ii_S2_P3E.4_K3.3_C3.2_[C-2G]_H3.3_A3.1_F3.1_T3.2_[T9A]_[A10T] (ssRNA)
RNA: B1 RNA with C38A, C39U
  Kd: 0.478 nM

## UCUCUUUGCAUUAUAAUCUCUU (ssRNA) [Ib_S1_P5E.1_K5.1_C5.1_H5.1_[T3C]_A5.1_F5.1_[T9A]_T5.1]
  Kd: 1400 nM

B5: Id_ii_S2_P3E.4_K3.3_C3.2_[C-2G]_H3.3_A3.1_F3.1_T3.2_[A10C] (ssRNA)
RNA: B1 RNA with C38U
  Kd: 0.486 nM

B6: Id_ii_S2_P3E.4_K3.3_C3.2_[C-2G]_H3.3_A3.1_F3.1_T3.2 (ssRNA)
RNA: B1 RNA with C38U, C39A
  Kd: 0.551 nM

B7: Id_ii_S2_P3E.4_K3.3_C3.2_[C-2T]_[T-1C]_H3.3_A3.1_F3.1_T3.2_[T9C]_[A10C] (ssRNA)
RNA: B1 RNA with G28U, U29C
  Kd: 1970 nM

B8: Id_ii_S2_P3E.4_K3.3_C3.2_[C-2T]_[T-1C]_H3.3_A3.1_F3.1_T3.2_[T9C]_[A10T] (ssRNA)
RNA: B1 RNA with G28U, U29C, C39U
  Kd: 1260 nM

B9: Id_ii_S2_P3E.4_K3.3_C3.2_[C-2T]_[T-1C]_H3.3_A3.1_F3.1_T3.2_[T9C] (ssRNA)
RNA: B1 RNA with G28U, U29C, C39A
  Kd: 417 nM

B10: Id_ii_S2_P3E.4_K3.3_C3.2_[C-2T]_[T-1C]_H3.3_A3.1_F3.1_T3.2_[T9A]_[A10G] (ssRNA)
RNA: B1 RNA with G28U, U29C, C38A, C39G
  Kd: > 2300 nM

B11: Id_ii_S2_P3E.4_K3.3_C3.2_[C-2T]_[T-1C]_H3.3_A3.1_F3.1_T3.2_[A10C] (ssRNA)
RNA: B1 RNA with G28U, U29C, C38U
  Kd: 1260 nM

B12: Id_ii_S2_P3E.4_K3.3_C3.2_[C-2T]_[T-1C]_H3.3_A3.1_F3.1_T3.2_[A10T] (ssRNA)
RNA: B1 RNA with G28U, U29C, C38U, C39U
  Kd: 940 nM

B13: Id_ii_S2_P3E.4_K3.3_C3.2_[C-2T]_[T-1A]_H3.3_A3.1_F3.1_T3.2_[T9C]_[A10T] (ssRNA)
RNA: B1 RNA with G28U, U29A, C39U
  Kd: 1860 nM

B14: Id_ii_S2_P3E.4_K3.3_C3.2_[C-2T]_[T-1A]_H3.3_A3.1_F3.1_T3.2_[T9A]_[A10T] (ssRNA)
RNA: B1 RNA with G28U, U29A, C38A, C39U
  Kd: 2150 nM

## UCUCUUUGUGUUAUGAUCUCUU (ssRNA) [Ib_S1_P5E.1_K5.1_C5.1_H5.1_[A4G]_A5.1_F5.1_[T9G]_T5.1]
  Kd: 750 nM

B15: Id_ii_S2_P3E.4_K3.3_C3.2_[C-2T]_[T-1A]_H3.3_A3.1_F3.1_T3.2_[T9A] (ssRNA)
RNA: B1 RNA with G28U, U29A, C38A, C39A
  Kd: > 2300 nM

B16: Id_ii_S2_P3E.4_K3.3_C3.2_[C-2T]_H3.3_A3.1_F3.1_T3.2_[T9G]_[A10C] (ssRNA)
RNA: B1 RNA with G28U, C38G
  Kd: 898 nM

B17: Id_ii_S2_P3E.4_K3.3_C3.2_[C-2T]_H3.3_A3.1_F3.1_T3.2_[T9C]_[A10T] (ssRNA)
RNA: B1 RNA with G28U, C39U
  Kd: 670 nM

B18: Id_ii_S2_P3E.4_K3.3_C3.2_[C-2T]_H3.3_A3.1_F3.1_T3.2_[A10G] (ssRNA)
RNA: B1 RNA with G28U, C38U, C39G
  Kd: > 2300 nM

B19: Id_ii_S2_P3E.4_K3.3_C3.2_[C-2T]_H3.3_A3.1_F3.1_T3.2_[A10C] (ssRNA)
RNA: B1 RNA with G28U, C38U
  Kd: 475 nM

B20: Id_ii_S2_P3E.4_K3.3_C3.2_[C-2A]_[T-1C]_H3.3_A3.1_F3.1_T3.2_[T9C]_[A10T] (ssRNA)
RNA: B1 RNA with G28A, U29C, C39U
  Kd: 1810 nM

B21: Id_ii_S2_P3E.4_K3.3_C3.2_[C-2A]_[T-1C]_H3.3_A3.1_F3.1_T3.2_[T9A] (ssRNA)
RNA: B1 RNA with G28A, U29C, C38A, C39A
  Kd: 1070 nM

B22: Id_ii_S2_P3E.4_K3.3_C3.2_[C-2A]_[T-1C]_H3.3_A3.1_F3.1_T3.2_[A10T] (ssRNA)
RNA: B1 RNA with G28A, U29C, C38U, C39U
  Kd: 868 nM

B23: Id_ii_S2_P3E.4_K3.3_C3.2_[C-2A]_[T-1A]_H3.3_A3.1_F3.1_T3.2_[T9C]_[A10G] (ssRNA)
RNA: B1 RNA with G28A, U29A, C39G
  Kd: > 2300 nM

B24: Id_ii_S2_P3E.4_K3.3_C3.2_[C-2A]_[T-1A]_H3.3_A3.1_F3.1_T3.2_[T9A]_[A10T] (ssRNA)
RNA: B1 RNA with G28A, U29A, C38A, C39U
  Kd: > 2300 nM

## UCUCUUUGUUUUAUGAUCUCUU (ssRNA) [Ib_S1_P5E.1_K5.1_C5.1_H5.1_[A4T]_A5.1_F5.1_[T9G]_T5.1]
  Kd: 981 nM

B25: Id_ii_S2_P3E.4_K3.3_C3.2_[C-2A]_[T-1A]_H3.3_A3.1_F3.1_T3.2_[T9A] (ssRNA)
RNA: B1 RNA with G28A, U29A, C38A, C39A
  Kd: 2020 nM

B26: Id_ii_S2_P3E.4_K3.3_C3.2_[C-2A]_[T-1A]_H3.3_A3.1_F3.1_T3.2_[A10C] (ssRNA)
RNA: B1 RNA with G28A, U29A, C38U
  Kd: 1770 nM

B27: Id_ii_S2_P3E.4_K3.3_C3.2_[C-2A]_H3.3_A3.1_F3.1_T3.2_[T9C]_[A10G] (ssRNA)
RNA: B1 RNA with G28A, C39G
  Kd: 116 nM

B28: Id_ii_S2_P3E.4_K3.3_C3.2_[C-2A]_H3.3_A3.1_F3.1_T3.2_[T9C]_[A10C] (ssRNA)
RNA: B1 RNA with G28A
  Kd: 15.5 nM

B29: Id_ii_S2_P3E.4_K3.3_C3.2_[C-2A]_H3.3_A3.1_F3.1_T3.2_[T9C] (ssRNA)
RNA: B1 RNA with G28A, C39A
  Kd: 21.7 nM

B30: Id_ii_S2_P3E.4_K3.3_C3.2_[C-2A]_H3.3_A3.1_F3.1_T3.2_[T9A]_[A10G] (ssRNA)
RNA: B1 RNA with G28A, C38A, C39G
  Kd: 174 nM

B31: Id_ii_S2_P3E.4_K3.3_C3.2_[C-2A]_H3.3_A3.1_F3.1_T3.2_[T9A]_[A10T] (ssRNA)
RNA: B1 RNA with G28A, C38A, C39U
  Kd: 32.2 nM

B32: Id_ii_S2_P3E.4_K3.3_C3.2_[C-2A]_H3.3_A3.1_F3.1_T3.2_[T9A] (ssRNA)
RNA: B1 RNA with G28A, C38A, C39A
  Kd: 27.3 nM

B33: Id_ii_S2_P3E.4_K3.3_C3.2_[C-2A]_H3.3_A3.1_F3.1_T3.2_[A10C] (ssRNA)
RNA: B1 RNA with G28A, C38U
  Kd: 11.8 nM

B34: Id_ii_S2_P3E.4_K3.3_C3.2_[T-1G]_H3.3_A3.1_F3.1_T3.2_[A10T] (ssRNA)
RNA: B1 RNA with G28C, U29G, C38U, C39U
  Kd: 1500 nM

## UCUCUUUGUCUUAUCAUCUCUU (ssRNA) [Ib_S1_P5E.1_K5.1_C5.1_H5.1_[A4C]_A5.1_F5.1_[T9C]_T5.1]
  Kd: 2040 nM

B35: Id_ii_S2_P3E.4_K3.3_C3.2_[T-1C]_H3.3_A3.1_F3.1_T3.2_[T9C]_[A10C] (ssRNA)
RNA: B1 RNA with G28C, U29C
  Kd: 1460 nM

B36: Id_ii_S2_P3E.4_K3.3_C3.2_[T-1C]_H3.3_A3.1_F3.1_T3.2_[T9C]_[A10T] (ssRNA)
RNA: B1 RNA with G28C, U29C, C39U
  Kd: 1080 nM

B37: Id_ii_S2_P3E.4_K3.3_C3.2_[T-1C]_H3.3_A3.1_F3.1_T3.2_[T9A]_[A10T] (ssRNA)
RNA: B1 RNA with G28C, U29C, C38A, C39U
  Kd: 1890 nM

B38: Id_ii_S2_P3E.4_K3.3_C3.2_[T-1C]_H3.3_A3.1_F3.1_T3.2 (ssRNA)
RNA: B1 RNA with G28C, U29C, C38U, C39A
  Kd: 194 nM

B39: Id_ii_S2_P3E.4_K3.3_C3.2_[T-1A]_H3.3_A3.1_F3.1_T3.2_[T9G]_[A10C] (ssRNA)
RNA: B1 RNA with G28C, U29A, C38G
  Kd: > 2300 nM

B40: Id_ii_S2_P3E.4_K3.3_C3.2_[T-1A]_H3.3_A3.1_F3.1_T3.2_[T9C]_[A10G] (ssRNA)
RNA: B1 RNA with G28C, U29A, C39G
  Kd: > 2300 nM

B41: Id_ii_S2_P3E.4_K3.3_C3.2_[T-1A]_H3.3_A3.1_F3.1_T3.2_[T9C]_[A10C] (ssRNA)
RNA: B1 RNA with G28C, U29A
  Kd: 2100 nM

B42: Id_ii_S2_P3E.4_K3.3_C3.2_[T-1A]_H3.3_A3.1_F3.1_T3.2_[T9C]_[A10T] (ssRNA)
RNA: B1 RNA with G28C, U29A, C39U
  Kd: > 2300 nM

B43: Id_ii_S2_P3E.4_K3.3_C3.2_[T-1A]_H3.3_A3.1_F3.1_T3.2_[T9A]_[A10T] (ssRNA)
RNA: B1 RNA with G28C, U29A, C38A, C39U
  Kd: > 2300 nM

B44: Id_ii_S2_P3E.4_K3.3_C3.2_[T-1A]_H3.3_A3.1_F3.1_T3.2_[A10T] (ssRNA)
RNA: B1 RNA with G28C, U29A, C38U, C39U
  Kd: 1130 nM

## UCUCUUUGUAUUAUUCUCUCUU (ssRNA) [Ia_S1_P5E.1_K5.1_C5.1_H5.1_A5.1_F5.1_[A10C]_T5.1]
  Kd: 16.4 nM

## UCUCUUUGUGUUAUAAUCUCUU (ssRNA) [Ib_S1_P5E.1_K5.1_C5.1_H5.1_[A4G]_A5.1_F5.1_[T9A]_T5.1]
  Kd: 57.8 nM

B45: Id_ii_S2_P3E.4_K3.3_C3.2_H3.3_A3.1_F3.1_T3.2_[T9G]_[A10C] (ssRNA)
RNA: B1 RNA with G28C, C38G
  Kd: 1600 nM

B46: Id_ii_S2_P3E.4_K3.3_C3.2_H3.3_A3.1_F3.1_T3.2_[T9A]_[A10T] (ssRNA)
RNA: B1 RNA with G28C, C38A, C39U
  Kd: 776 nM

B47: Id_ii_S2_P3E.4_K3.3_C3.2_H3.3_A3.1_F3.1_T3.2_[T9A] (ssRNA)
RNA: B1 RNA with G28C, C38A, C39A
  Kd: 454 nM

B48: Id_ii_S2_P3E.4_K3.3_C3.2_H3.3_A3.1_F3.1_T3.2_[A10C] (ssRNA)
RNA: B1 RNA with G28C, C38U
  Kd: 343 nM

B49: Id_ii_S2_P3E.4_K3.3_C3.2_H3.3_A3.1_F3.1_T3.2_[A10T] (ssRNA)
RNA: B1 RNA with G28C, C38U, C39U
  Kd: 399 nM

B50: Id_ii_S2_P4E.2_K4.1_C4.2_[C-2G]_[T-1G]_H4.1_A4.1_F4.1_T4.2_[G10T] (ssRNA)
RNA: UUUGAUUAAUAUGAUAUCGUUCUUUCUGGUGUAUAUUAUUUUCUUUCUCGAUAUCAUAUUAAUCUUU
  Kd: 0.435 nM

B51: Id_ii_S2_P4E.2_K4.1_C4.2_[C-2G]_[T-1G]_H4.1_A4.1_F4.1_T4.2_[G10A]_[T11A] (ssRNA)
RNA: B50 RNA with U39A, U40A
  Kd: 1.5 nM
